Test results from paper PMC3290569, “Macro-to-Micro Structural Proteomics: Native Source Proteins for High-Throughput Crystallization” (PLoS ONE, 2012).

B1: Methylglyoxal reductase (YghZ) (enzyme, Escherichia coli, UniProt Q46851 1-346, looked up)
chain: MVWLANPERYGQMQYRYCGKSGLRLPALSLGLWHNFGHVNALESQRAILRKAFDLGITHFDLANNYGPPPGSAEENFGRLLREDFAAYRDELIISTKAGYDMWPGPYGSGGSRKYLLASLDQSLKRMGLEYVDIFYSHRVDENTPMEETASALAHAVQSGKALYVGISSYSPERTQKMVELLREWKIPLLIHQPSYNLLNRWVDKSGLLDTLQNNGVGCIAFTPLAQGLLTGKYLNGIPQDSRMHREGNKVRGLTPKMLTEANLNSLRLLNEMAQQRGQSMAQMALSWLLKDDRVTSVLIGASRAEQLEENVQALNNLTFSTKELAQIDQHIADGELNLWQASSDK
notes: methylglyoxal reductase YghZ, Escherichia coli, native source protein; identified from the electron density after molecular replacement; source: purified from E. coli DH5α cells (heparin sepharose, phenyl sepharose, MonoQ)
B2: Glucose-6-phosphate isomerase (pGI) (enzyme)
chain: not shown
notes: glucose-6-phosphate isomerase, Escherichia coli, native source protein; also called phosphoglucose isomerase; source: purified from E. coli DH5α cells (CaptoQ, phenyl sepharose, MonoQ)
B3: Ariginosuccinate lyase (enzyme, Escherichia coli, UniProt P11447 1-457, looked up)
chain: MALWGGRFTQAADQRFKQFNDSLRFDYRLAEQDIVGSVAWSKALVTVGVLTAEEQAQLEEALNVLLEDVRARPQQILESDAEDIHSWVEGKLIDKVGQLGKKLHTGRSRNDQVATDLKLWCKDTVSELLTANRQLQSALVETAQNNQDAVMPGYTHLQRAQPVTFAHWCLAYVEMLARDESRLQDALKRLDVSPLGCGALAGTAYEIDREQLAGWLGFASATRNSLDSVSDRDHVLELLSAAAIGMVHLSRFAEDLIFFNTGEAGFVELSDRVTSGSSLMPQKKNPDALELIRGKCGRVQGALTGMMMTLKGLPLAYNKDMQEDKEGLFDALDTWLDCLHMAALVLDGIQVKRPRCQEAAQQGYANATELADYLVAKGVPFREAHHIVGEAVVEAIRQGKPLEDLPLSELQKFSQVIDEDVYPILSLQSCLDKRAAKGGVSPQQVAQAIAFAQARLG
notes: argininosuccinate lyase (printed: Ariginosuccinate lyase), Escherichia coli, native source protein; identified with PDB 1TJ7; the PDB entry is the previously deposited structure that identified the protein; the crystallised protein is the native one; also called Arginosuccinate lyase; source: purified from E. coli DH5α cells (whole-proteome fractionation)
B4: heat shock protein 31 (HSP31) (natural protein, Escherichia coli, UniProt P31658 1-283, looked up)
chain: MTVQTSKNPQVDIAEDNAFFPSEYSLSQYTSPVSDLDGVDYPKPYRGKHKILVIAADERYLPTDNGKLFSTGNHPIETLLPLYHLHAAGFEFEVATISGLMTKFEYWAMPHKDEKVMPFFEQHKSLFRNPKKLADVVASLNADSEYAAIFVPGGHGALIGLPESQDVAAALQWAIKNDRFVISLCHGPAAFLALRHGDNPLNGYSICAFPDAADKQTPEIGYMPGHLTWYFGEELKKMGMNIINDDITGRVHKDRKLLTGDSPFAANALGKLAAQEMLAAYAG
notes: Hsp31, Escherichia coli, native source protein; identified with PDB 1N57; the PDB entry is the previously deposited structure that identified the protein; the crystallised protein is the native one; source: purified from E. coli DH5α cells (whole-proteome fractionation)
B5: Catalase HPII (enzyme, Escherichia coli, UniProt P21179 1-753, looked up)
chain: MSQHNEKNPHQHQSPLHDSSEAKPGMDSLAPEDGSHRPAAEPTPPGAQPTAPGSLKAPDTRNEKLNSLEDVRKGSENYALTTNQGVRIADDQNSLRAGSRGPTLLEDFILREKITHFDHERIPERIVHARGSAAHGYFQPYKSLSDITKADFLSDPNKITPVFVRFSTVQGGAGSADTVRDIRGFATKFYTEEGIFDLVGNNTPIFFIQDAHKFPDFVHAVKPEPHWAIPQGQSAHDTFWDYVSLQPETLHNVMWAMSDRGIPRSYRTMEGFGIHTFRLINAEGKATFVRFHWKPLAGKASLVWDEAQKLTGRDPDFHRRELWEAIEAGDFPEYELGFQLIPEEDEFKFDFDLLDPTKLIPEELVPVQRVGKMVLNRNPDNFFAENEQAAFHPGHIVPGLDFTNDPLLQGRLFSYTDTQISRLGGPNFHEIPINRPTCPYHNFQRDGMHRMGIDTNPANYEPNSINDNWPRETPPGPKRGGFESYQERVEGNKVRERSPSFGEYYSHPRLFWLSQTPFEQRHIVDGFSFELSKVVRPYIRERVVDQLAHIDLTLAQAVAKNLGIELTDDQLNITPPPDVNGLKKDPSLSLYAIPDGDVKGRVVAILLNDEVRSADLLAILKALKAKGVHAKLLYSRMGEVTADDGTVLPIAATFAGAPSLTVDAVIVPCGNIADIADNGDANYYLMEAYKHLKPIALAGDARKFKATIKIADQGEEGIVEADSADGSFMDELLTLMAAHRVWSRIPKIDKIPA
notes: catalase HPII, Escherichia coli, native source protein; identified with PDB 1GG9; the PDB entry is the previously deposited structure that identified the protein; the crystallised protein is the native one; source: purified from E. coli DH5α cells (whole-proteome fractionation)
B6: Citrate synthase (enzyme, Escherichia coli, UniProt P0ABH7 1-427, looked up)
chain: MADTKAKLTLNGDTAVELDVLKGTLGQDVIDIRTLGSKGVFTFDPGFTSTASCESKITFIDGDEGILLHRGFPIDQLATDSNYLEVCYILLNGEKPTQEQYDEFKTTVTRHTMIHEQITRLFHAFRRDSHPMAVMCGITGALAAFYHDSLDVNNPRHREIAAFRLLSKMPTMAAMCYKYSIGQPFVYPRNDLSYAGNFLNMMFSTPCEPYEVNPILERAMDRILILHADHEQNASTSTVRTAGSSGANPFACIAAGIASLWGPAHGGANEAALKMLEEISSVKHIPEFVRRAKDKNDSFRLMGFGHRVYKNYDPRATVMRETCHEVLKELGTKDDLLEVAMELENIALNDPYFIEKKLYPNVDFYSGIILKAMGIPSSMFTVIFAMARTVGWIAHWSEMHSDGMKIARPRQLYTGYEKRDFKSDIKR
notes: citrate synthase, Escherichia coli, native source protein; identified with PDB 1NXG; the PDB entry is the previously deposited structure that identified the protein; the crystallised protein is the native one; source: purified from E. coli DH5α cells (whole-proteome fractionation)
B7: ycaC gene product (natural protein, Escherichia coli, UniProt P21367 1-208, looked up)
chain: MTKPYVRLDKNDAAVLLVDHQAGLLSLVRDIEPDKFKNNVLALGDLAKYFNLPTILTTSFETGPNGPLVPELKAQFPDTPYIARPGNINAWDNEDFVKAVKATGKKQLIIAGVVTEVCVAFPALSAIEEGFDVFVVTDASGTFNEITRHSAWDRLSQAGAQLMTWFGVACELHRDWRNDIEGLATLFSNHIPDYRNLMTSYDTLTKQK
notes: ycaC gene product, Escherichia coli, native source protein; identified with PDB 1YAC; the PDB entry is the previously deposited structure that identified the protein; the crystallised protein is the native one; source: purified from E. coli DH5α cells (whole-proteome fractionation)
B8: Cystathione gamma-synthase (enzyme, Escherichia coli, UniProt P00935 1-386, looked up)
chain: MTRKQATIAVRSGLNDDEQYGCVVPPIHLSSTYNFTGFNEPRAHDYSRRGNPTRDVVQRALAELEGGAGAVLTNTGMSAIHLVTTVFLKPGDLLVAPHDCYGGSYRLFDSLAKRGCYRVLFVDQGDEQALRAALAEKPKLVLVESPSNPLLRVVDIAKICHLAREVGAVSVVDNTFLSPALQNPLALGADLVLHSCTKYLNGHSDVVAGVVIAKDPDVVTELAWWANNIGVTGGAFDSYLLLRGLRTLVPRMELAQRNAQAIVKYLQTQPLVKKLYHPSLPENQGHEIAARQQKGFGAMLSFELDGDEQTLRRFLGGLSLFTLAESLGGVESLISHAATMTHAGMAPEARAAAGISETLLRISTGIEDGEDLIADLENGFRAANKG
notes: cystathionine gamma-synthase (printed: Cystathione gamma-synthase), Escherichia coli, native source protein; identified with PDB 1CS1; the PDB entry is the previously deposited structure that identified the protein; the crystallised protein is the native one; source: purified from E. coli DH5α cells (whole-proteome fractionation)

Molecular target: the molecule itself
Test: crystal structure; novel structures of native source E. coli proteins, solved by molecular replacement and refined; oligomer seen in the crystal
For B1, the “stoichiometry N” value was 4. For B2, the “stoichiometry N” value was 2.

Molecular target: the molecule itself
Test: crystal structure; native source E. coli proteins already in the PDB, identified and solved by brute-force molecular replacement, not refined except to confirm the solution; oligomer seen in the crystal
B3: binds. B4: binds. B5: binds. B6: binds. B7: binds. B8: binds.
